The target in data set [1] is T1, recombinant human AceCS2^myc-His (residues 38-689, C-terminal myc-His tag, purified from E. coli), acetylated at Lys642 (UniProt Q9NUB1).
T1 sequence: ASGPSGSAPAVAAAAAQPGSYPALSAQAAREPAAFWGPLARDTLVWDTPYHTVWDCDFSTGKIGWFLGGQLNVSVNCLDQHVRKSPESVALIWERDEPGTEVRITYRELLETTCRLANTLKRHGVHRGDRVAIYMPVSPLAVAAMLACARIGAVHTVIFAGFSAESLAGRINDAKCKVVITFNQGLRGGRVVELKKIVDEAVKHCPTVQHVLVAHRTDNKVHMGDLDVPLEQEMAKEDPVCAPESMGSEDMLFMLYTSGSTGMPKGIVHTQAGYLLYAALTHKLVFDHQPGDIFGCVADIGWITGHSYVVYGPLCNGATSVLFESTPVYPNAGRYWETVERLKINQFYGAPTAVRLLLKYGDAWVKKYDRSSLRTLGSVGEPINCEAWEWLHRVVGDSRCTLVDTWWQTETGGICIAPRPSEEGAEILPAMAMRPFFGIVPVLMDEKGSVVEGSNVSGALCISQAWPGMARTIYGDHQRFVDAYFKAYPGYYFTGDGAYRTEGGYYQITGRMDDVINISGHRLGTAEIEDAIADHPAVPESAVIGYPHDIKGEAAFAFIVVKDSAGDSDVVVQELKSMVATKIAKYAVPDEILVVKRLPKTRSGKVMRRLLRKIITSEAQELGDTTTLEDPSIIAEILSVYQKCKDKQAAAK

The target of data set [2] is T2, recombinant human AceCS2^myc-His (residues 38-689, C-terminal myc-His tag, purified from E. coli), acetylated at Lys642, Q9NUB1.
T2 chain: T1 sequence

Numbering of substitutions follows the chain as printed. Names may count otherwise.

Consider “recombinant human SIRT5 lacking the first 11 residues (residues 12-310, myc-His tagged)”, for which the “in vitro deacetylation of AceCS2 (immunoblot with acetyl-lysine-specific antibodies)” value in data set [1] is “both recombinant SIRT5 proteins failed to do so”.
With “recombinant human SIRT5 lacking the first 38 residues (residues 39-310, myc-His tagged)”, the “in vitro deacetylation of AceCS2 (immunoblot with acetyl-lysine-specific antibodies)” value in data set [1] is reported as “both recombinant SIRT5 proteins failed to do so”.

B1: Flag-tagged SIRT5 (SIRT5^Flag, expressed in HEK293 or COS-1 cells) (protein)
chain: SSSMADFRKFFAKAKHIVIISGAGVSAESGVPTFRGAGGYWRKWQAQDLATPLAFAHNPSRVWEFYHYRREVMGSKEPNAGHRAIAECETRLGKQGRRVVVITQNIDELHRKAGTKNLLEIHGSLFKTRCTSCGVVAENYKSPICPALSGKGAPEPGTQDASIPVEKLPRCEEAGCGGLLRPHVVWFGENLDPAILEEVDRELAHCDLCLVVGTSSVVYPAAMFAPQVAARGVPVAEFNTETTPATNRFRFHFQGPCGTTLPEALACHENETVS
For B1, the “in vitro deacetylation of AceCS2 (immunoblot with acetyl-lysine-specific antibodies)” value in data set [2] was “it failed to deacetylate AceCS2”.

B2: recombinant human SIRT3 (residues 102-399, myc-His tagged, purified from E. coli) (protein)
chain: ISFSVGASSVVGSGGSSDKGKLSLQDVAELIRARACQRVVVMVGAGISTPSGIPDFRSPGSGLYSNLQQYDLPYPEAIFELPFFFHNPKPFFTLAKELYPGNYKPNVTHYFLRLLHDKGLLLRLYTQNIDGLERVSGIPASKLVEAHGTFASATCTVCQRPFPGEDIRADVMADRVPRCPVCTGVVKPDIVFFGEPLPQRFLLHVVDFPMADLLLILGTSLEVEPFASLTEAVRSSVPRLLINRDLVGPLAWHPRSRDVAQLGDVVHGVESLVELLGWTEEMRDLVQRETGKLDGPDK
Regarding B2, in data set [2], the “acetyl-CoA synthetase specific activity of AceCS2 after incubation with SIRT3” value is on record as “deacetylation by SIRT3 was associated with a significant increase in enzymatic activity”; the “in vitro deacetylation of AceCS2 (immunoblot with acetyl-lysine-specific antibodies)” value was “recombinant SIRT3 effectively deacetylated AceCS2”; the “in vitro deacetylation of hyperacetylated AceCS2 with NAD^+” value is “This treatment led to a complete deacetylation of AceCS2”; the “time course of AceCS2 deacetylation and of its enzymatic activity” value was “incubation of AceCS2 with SIRT3 and NAD^+ caused a progressive deacetylation of AceCS2 over time”.

B3: recombinant human SIRT3-H248Y (residues 102-399, myc-His tagged, purified from E. coli), catalytically inactive mutant (protein)
chain: B2 chain with H147Y
For the molecule B3, in data set [2], the “in vitro deacetylation of AceCS2 (immunoblot with acetyl-lysine-specific antibodies)” value was “the catalytically inactive SIRT3-H248Y mutant did not deacetylate AceCS2, despite the presence of NAD^+”; the “in vitro deacetylation of hyperacetylated AceCS2 with NAD^+” value was “No deacetylation of AceCS2 was observed when NAD^+ was omitted from the reaction, or when a catalytically inactive SIRT3 mutant (H248Y) was used”; the “time course of AceCS2 deacetylation” value was “could not be observed with the inactive SIRT3-H248Y mutant”.

B4: Flag-tagged SIRT3 (SIRT3^Flag, expressed in HEK293 or COS-1 cells) (protein)
chain: B2 chain
On to B4, for which the “in vitro deacetylation of AceCS2 (immunoblot with acetyl-lysine-specific antibodies)” value in data set [2] was “immunoprecipitated Flag-tagged SIRT3 deacetylated AceCS2 in a NAD^+-dependent manner”.

B5: Flag-tagged SIRT4 (protein)
chain: IGLFVPASPPLDPEKVKELQRFITLSKRLLVMTGAGISTESGIPDYRSEKVGLYARTDRRPIQHGDFVRSAPIRQRYWARNFVGWPQFSSHQPNPAHWALSTWEKLGKLYWLVTQNVDALHTKAGSRRLTELHGCMDRVLCLDCGEQTPRGVLQERFQVLNPTWSAEAHGLAPDGDVFLSEEQVRSFQVPTCVQCGGHLKPDVVFFGDTVNPDKVDFVHKRVKEADSLLVVGSSLQVYSGYRFILTAWEKKLPIAILNIGPTRSDDLACLKLNSRCGELLPLIDPC
In the case of B5, the “in vitro deacetylation of AceCS2” value in data set [2] is “did not deacetylate AceCS2 (data not shown)”.

Values taken from patent US20090061015.
